Assay results as given in PMC3229523, “Identification of Lactoferricin B Intracellular Targets Using an Escherichia coli Proteome Chip” (PLoS ONE, 2011).
Ends that are not written are not given here. * marks the point of attachment. Biotin = O=C1N[C@H]2[C@H](CS[C@H]2CCCCC(=O)*)N1

How the values were obtained:
Assay in all cases: peptide or protein array; E. coli proteome chip: purified His-tagged proteins printed in duplicate on Fullmoon slides, blocked with 1% BSA; 10 nM N-terminal biotinylated LfcinB with 1% BSA, room temperature, 1 h; detected with DyLight 649-labeled streptavidin, ratio to DyLight 549-labeled anti-His antibody; ProCAT normalisation, local cut-off; triplicate chips
Conditions in all cases: both partners purified
YjhI = molecular target: T1, YjhI (E. coli K-12, UniProt P39360 1-262)
T1 construct: YjhI, E. coli K-12
T1 sequence (looked up): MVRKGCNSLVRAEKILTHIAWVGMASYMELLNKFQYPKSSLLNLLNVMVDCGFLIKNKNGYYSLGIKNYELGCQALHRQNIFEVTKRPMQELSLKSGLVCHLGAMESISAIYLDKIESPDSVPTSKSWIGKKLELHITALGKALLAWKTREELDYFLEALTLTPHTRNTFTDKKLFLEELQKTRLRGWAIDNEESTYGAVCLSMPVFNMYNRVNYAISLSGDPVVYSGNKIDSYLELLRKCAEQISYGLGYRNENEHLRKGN

YegJ = molecular target: T2, YegJ (E. coli K-12, UniProt P76394 1-153)
T2 construct: YegJ, E. coli K-12
T2 sequence (looked up): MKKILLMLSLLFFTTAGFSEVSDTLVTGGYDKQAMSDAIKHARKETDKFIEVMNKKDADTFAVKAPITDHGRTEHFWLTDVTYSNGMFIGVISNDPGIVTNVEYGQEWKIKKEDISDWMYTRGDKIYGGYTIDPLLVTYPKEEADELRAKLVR

RffH = molecular target: T3, RffH (E. coli K-12, UniProt P61887 1-293)
T3 construct: RffH, E. coli K-12

YtfI = molecular target: T4, YtfI (E. coli K-12, UniProt P39317 1-312)
T4 construct: YtfI, E. coli K-12
T4 sequence (looked up): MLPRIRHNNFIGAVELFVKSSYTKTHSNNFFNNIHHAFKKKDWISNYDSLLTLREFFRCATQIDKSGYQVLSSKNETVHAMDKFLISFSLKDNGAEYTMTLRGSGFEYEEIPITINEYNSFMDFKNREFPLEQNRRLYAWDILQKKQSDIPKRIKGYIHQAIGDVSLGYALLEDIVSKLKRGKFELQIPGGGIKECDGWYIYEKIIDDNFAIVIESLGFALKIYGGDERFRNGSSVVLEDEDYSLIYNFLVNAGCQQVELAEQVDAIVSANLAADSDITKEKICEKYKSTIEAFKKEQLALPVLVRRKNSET

MetL = molecular target: T5, MetL (E. coli K-12, UniProt P00562 1-810)
T5 construct: MetL, E. coli K-12
T5 sequence (looked up): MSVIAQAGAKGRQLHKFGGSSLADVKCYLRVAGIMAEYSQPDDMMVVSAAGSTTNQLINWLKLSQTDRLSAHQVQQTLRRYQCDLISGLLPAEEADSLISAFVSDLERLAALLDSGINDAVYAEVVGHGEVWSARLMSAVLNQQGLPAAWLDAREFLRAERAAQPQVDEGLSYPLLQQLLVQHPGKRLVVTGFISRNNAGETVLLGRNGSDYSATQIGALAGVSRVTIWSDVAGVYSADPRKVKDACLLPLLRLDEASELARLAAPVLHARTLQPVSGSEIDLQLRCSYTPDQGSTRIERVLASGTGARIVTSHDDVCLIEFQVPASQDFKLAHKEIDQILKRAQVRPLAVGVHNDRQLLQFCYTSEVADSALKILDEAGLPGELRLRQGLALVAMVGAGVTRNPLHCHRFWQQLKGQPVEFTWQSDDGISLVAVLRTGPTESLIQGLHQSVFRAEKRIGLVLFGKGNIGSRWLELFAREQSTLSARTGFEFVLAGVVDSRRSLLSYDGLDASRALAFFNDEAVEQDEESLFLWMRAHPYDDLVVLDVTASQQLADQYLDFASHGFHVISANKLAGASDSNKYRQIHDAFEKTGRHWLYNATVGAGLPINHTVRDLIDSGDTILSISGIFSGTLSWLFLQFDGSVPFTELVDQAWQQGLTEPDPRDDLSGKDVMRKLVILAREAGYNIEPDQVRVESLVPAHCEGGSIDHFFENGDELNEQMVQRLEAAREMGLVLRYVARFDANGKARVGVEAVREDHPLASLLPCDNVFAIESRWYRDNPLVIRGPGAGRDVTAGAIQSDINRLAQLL

AdiY = molecular target: T6, AdiY (E. coli K-12, UniProt P33234 1-253)
T6 construct: AdiY, E. coli K-12
T6 sequence (looked up): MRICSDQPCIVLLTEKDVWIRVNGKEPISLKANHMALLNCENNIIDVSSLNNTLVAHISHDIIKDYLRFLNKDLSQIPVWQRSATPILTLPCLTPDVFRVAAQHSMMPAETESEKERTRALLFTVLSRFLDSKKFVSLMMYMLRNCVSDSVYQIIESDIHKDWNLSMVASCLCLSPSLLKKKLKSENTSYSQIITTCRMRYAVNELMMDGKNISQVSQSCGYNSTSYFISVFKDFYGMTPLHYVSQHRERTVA

Measured: binding result

T3 sequence (P61887 whole entry): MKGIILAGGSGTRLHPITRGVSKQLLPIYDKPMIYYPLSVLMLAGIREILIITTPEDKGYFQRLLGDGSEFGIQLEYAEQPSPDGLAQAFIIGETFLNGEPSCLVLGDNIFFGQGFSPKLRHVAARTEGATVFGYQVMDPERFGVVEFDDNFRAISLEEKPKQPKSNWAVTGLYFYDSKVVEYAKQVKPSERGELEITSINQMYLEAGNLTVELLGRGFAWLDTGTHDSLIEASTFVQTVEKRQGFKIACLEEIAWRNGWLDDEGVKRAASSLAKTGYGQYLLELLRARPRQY

B1: N-terminal biotinylated Lactoferricin B (peptide, UniProt P24627 36-60, looked up)
peptide: Biotin-FKCRRWQWRMKKLGAPSITCVRRAF
modifications: ends and bridges not checked
notes: lactoferricin B (LfcinB), cationic antimicrobial peptide of 25 amino acids; also called biotinylated LfcinB; biotin-labeled LfcinB; source: bought: Kelowna Inc
binds: YjhI | YegJ | RffH | YtfI | MetL | AdiY
